Patent US12564623B2, “Methods and compositions for treating cancer” (The University of Chicago, priority 2017, dated 2026)

Experiments:
[1] = test system: E0771, B16F10, or LLC1 cancer cells; assay: Tumor growth after intratumoral delivery, syngeneic models; format: in vivo, C57BL/6 mice; conditions: 11.6 μg intratumorally once/day for 5 days
Protocol: ELANE activity is required for its anti-tumor function in vivo. (FIG. 14A) Catalytic activity of ELANE or ELANE that had been inactivated by treatment with 100 nM PMSF (PMSF-ELANE) was determined by a chromogenic substrate. (FIG. 14B) E0771, B16F10, or LLC1 cancer cells were injected into C57BL/6 mice. Once tumors reached ˜100 mm^3, human serum albumin (HSA, 11.6 μg), ELANE (11.6 μg), or PMSF-ELANE (11.6 μg) were delivered intratumorally once/day for 5 days. Tumor volume was assessed by calipers.

CD95 [2] = assay: CD95 immunoreactivity and ELANE uptake in non-cancer cells; format: cell-based
Protocol: Non-cancer cells were treated with ELANE (50 nM) for 1 hr, fixed in 10% formalin, and stained with N- or C-terminal specific anti-CD95 antibodies. Hoechst 33342 solution was used for nuclear staining. Images were taken under 40×. […] Non-cancer cells were treated with ELANE (100 nM) in the presence or absence of a broad endocytosis inhibitor Dynasore (80 μM) for 30 mins. ELANE catalytic activity in cell lysates was assessed using a chromogenic substrate assay.

Cancer cells = assay: Killing program signaling in cancer cells (ERK, NFKB, JNK, ROS, H2AX, CASP3, PARP); format: cell-based, Human and mouse; conditions: 50 nM
Protocol: (FIG. 10A) Cancer cells were treated with ELANE (50 nM) for 4 hrs, and phosphorylated and total ERK, NFKB, and JNK were quantified by western blotting. Immunoblots for E0771 cancer cells are shown as an example. (FIG. 10B) Cancer cells were treated with various doses of ELANE for 1 hr and mitochondrial ROS was measured by flow cytometry using CM-H2DCFDA dye. (FIG. 10C) Cancer cells were treated with ELANE (50 nM) and DNA damage was assessed by immunoblotting for phospho-(γH2AX) and total H2AX. Immunoblots for A549 cancer cells are shown as an example. (FIG. 10D) Cells were treated with ELANE (50 nM) for 8 hrs, and full length and cleaved CASP3 (c-CASP3) and cleaved PARP (c-PARP) were quantified by immunoblotting. Immunoblots for LLC1 cancer cells are shown as an example. *, p<0.05, Student's t-test.
ELANE induces a robust killing program in a variety of cancer cells. Human and mouse cancer cells were treated with ELANE and signaling pathways associated with cancer cell death were assessed. Cells were treated with ELANE (50 nM) for 4 hrs, and phosphorylated and total ERK, NFKB, and JNK were quantified by western blotting. Cells were treated with various doses of ELANE for 1 hr and mitochondrial ROS was measured by flow cytometry using CM-H2DCFDA dye. Cells were treated with ELANE (50 nM) and DNA damage was assessed by western blot for phospho-(γH2AX) and total H2AX. […]

CD95 [3] = assay: Recombinant CD95 degradation, SDS-PAGE and coomassie blue; format: biochemical, human; conditions: ELANE 0.05 μg, 1 μg recombinant protein, 2 hrs at 37° C.
Protocol: (§1) ELANE lowers CD95 levels in cancer cells and reduced CD95 levels are associated with apoptosis. (FIG. 8A) Recombinant proteins (1 μg) corresponding to full length CD95 (FL-CD95), N-terminal domain of CD95 (amino acids 1-173; N-CD95), or C-terminal domain of CD95 (amino acids 157-320; C-CD95) were inbuated with ELANE (0.05 μg) or vehicle (Veh) for 2 hrs at 37° C. Degradation was assessed by SDS-PAGE followed by coomassie blue staining. […] (FIG. 8C) Cancer cells were treated with ELANE (50 nM) for 1 hr, fixed in 10% formalin, and stained with N- or C-terminal specific anti-CD95 antibodies (green). Hoechst 33342 solution was used for nuclear staining (blue). Images were taken under 40×.
ELANE selectively cleaves the C-terminal domain of CD95. […] Degradation was assessed by SDS-PAGE followed by staining with coomassie blue. […] Mel888 cancer cells were treated with ELANE (50 nM) for various times, and CD95 degradation was assessed by western blot analysis with a C-terminal specific anti-CD95 antibody.
Other serine proteases cleave the C-terminal domain of CD95, and the ability to cleave the C-terminal domain is associated with cancer cell killing. […] Degradation was assessed by SDS-PAGE followed by coomassie blue staining. […] Cell viability was assessed by Calcein AM staining.

CD95 [4] = biological target: T1, CD95 (Homo sapiens, UniProt P25445); assay: CD95 loss and immunoreactivity in ELANE-treated cancer cells; format: cell-based; parameters: endogenous in cells; host or cells: Mel888 melanoma cells
T1 sequence (P25445 26-335): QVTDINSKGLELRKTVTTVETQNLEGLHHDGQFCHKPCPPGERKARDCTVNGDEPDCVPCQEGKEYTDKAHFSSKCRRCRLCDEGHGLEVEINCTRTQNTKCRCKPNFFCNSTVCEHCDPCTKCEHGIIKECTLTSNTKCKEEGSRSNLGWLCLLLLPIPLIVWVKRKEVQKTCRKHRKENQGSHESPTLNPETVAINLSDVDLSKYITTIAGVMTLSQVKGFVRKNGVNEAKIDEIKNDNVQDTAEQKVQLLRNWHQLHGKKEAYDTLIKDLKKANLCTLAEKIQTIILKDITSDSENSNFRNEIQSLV
Protocol: as §1
ELANE selectively cleaves the C-terminal domain of CD95. The CD95 pathway is essential for the survival of a wide range of cancer cells, but largely dispensable for normal cell survival (Adachi et al., Nat. Genet., 1995; Karray et al., J. Immunol., 2004). CD95 function can be modulated by proteolysis (Strand et al., Oncogene, 2004). […] Degradation was assessed by SDS-PAGE followed by staining with coomassie blue. […] Mel888 cancer cells were treated with ELANE (50 nM) for various times, and CD95 degradation was assessed by western blot analysis with a C-terminal specific anti-CD95 antibody.

B1: neutrophil elastase (protein, listed as Homo sapiens)
chain: MTLGRRLACLFLACVLPALLLGGTALASEIVGGRRARPHAWPFMVSLQLRGGHFCGATLIAPNFVMSAAHCVANVNVRAVRVVLGAHNLSRREPTRQVFAVQRIFENGYDPVNLLNDIVILQLNGSATINANVQVAQLPAQGRRLGNGVQCLAMGWGLLGRNRGIASVLQELNVTVVTSLCRRSNVCTLVRGRQAGVCFGDSGSPLVCNGLIHGIASFVRGGCASGLYPDAFAPVAQFVNWIDSIIQRSEDNPCPHPRDPDPASRTH
notes: purified native ELANE
[1]
  tumor growth: slows tumor growth
CD95 [2]; 50 nM, 1 hr
  CD95 immunoreactivity of non-cancer cells: loss of immunoreactivity with a C-terminal specific antibody
CD95 [2]; 100 nM, 30 mins
  uptake by non-cancer cells: internalized by non-cancer cells
Cancer cells
  killing program in cancer cells: induces a robust killing program in cancer cells
CD95 [3]
  cleavage of CD95 domains: preferentially cleaves the C-terminal domain of CD95
CD95 [4]; 50 nM, 1 hr
  CD95 immunoreactivity of cancer cells: lose immunoreactivity to a C-terminal specific CD95 antibody, but not to an N-terminal specific CD95 antibody
CD95 [4]; incubating cancer cells with ELANE
  CD95 at the cell surface: CD95 loss from the cell surface
